Assay results published in US20240093191A1, “COMPOSITIONS AND METHODS FOR TREATING DISEASE ASSOCIATED WITH DUX4 OVEREXPRESSION” (RESEARCH INSTITUTE AT NATIONWIDE CHILDREN'S HOSPITAL, priority 2021, published 2024).

How the values were obtained:
Format in all cases: cell-based, human
[1] = system: DUX4 protein; assay: Western blot of V5-tagged DUX4 protein in co-transfected HEK293 cells; details: CMV.DUX4-FL/CMV.eGFP, HEK293, molar ratio 1 to 3, eGFP normalizer, relative to U6-milacZ, N = 3-8
Description: Western Blots. […] 50 mM Tris (pH 7.5-8.0), 150 mM NaCl, 0.1% (v/v) SDS, 0.5% (v/v) deoxycholate, 1% (v/v) triton X-100 (Fisher Scientific) and 1 tablet of protease inhibitor (ThermoFisher Scientific) per 10 mL of buffer. The total protein extract was quantified using the DC Protein Assay (Bio-Rad). Twenty microgram samples were separated on 12% SDS-PAGE, transferred to nitrocellulose membrane, using the wet transfer system, and incubated with the following antibodies: mouse monoclonal antibody to V5 (horseradish peroxidase [HRP]-coupled) [1:5,000 in 5% milk TBST buffer (150 mM NaCl, 50 mM Tris-HCl pH 7.4 and 0.1% Tween 20 (Fisher Scientific)), R961-25; Invitrogen); rabbit polyclonal eGFP antibody (1:50,000 in 3% BSA PBS, ab290; Abcam); mouse monoclonal β-actin antibodies (1:60,000; Sigma, St Louis, MO); overnight at 4° C. When using the eGFP antibody, membranes were blocked 30 mins with 3% BSA PBS prior to blotting. eGFP-probed blots were washed five times, 5 min each with 0.5% Tween 20 (Fisher Scientific) in TBST buffer, and then incubated with HRP-coupled goat anti-rabbit secondary antibody (1:250,000 in 3% BSA PBS, 115-035-144; Jackson ImmunoResearch) for 2 hours at room temperature. V5-probed blots were washed five times, 5 min each with 0.1% Tween 20 in TBST buffer. Following washes, blots were developed using Immobilon Western HRP substrate (Millipore) and exposed to film. DUX4.V5, and eGFP quantification was assessed using ImageJ.

[2] = system: mir-675-5p; assay: TaqMan QRT-PCR of mature mir-675-5p from transfected constructs in HEK293 cells; details: HEK293, 24 h post-transfection; for mir-675-5p levels compared to U6.mir-675: 23 mer mature mir-675-5p
From the text: RNA Extraction. RNA from HEK293 cells was extracted for Northern blot assay and QPCR. The miRVANA miRNA isolation kit (ThermoFisher Scientific) was used according to manufacturer's directions to extract total RNA encompassing small RNAs, such as miRNAs. To extract RNA from C57BL/6 skeletal muscles, cryopreserved muscles were crushed under suboptimal temperatures using liquid nitrogen and using mortar and pestle. Crushed muscles were then lysed using […] of miRVANA miRNA isolation kit lysis buffer, a TissueLyser and 1.0 mm zirconia beads (Biospec). Muscle was homogenized at 30 Hz for 30 sec with 10 sec rest. This was repeated 3 times.
TaqMan Gene Expression Assay. QRT-PCR was carried out to quantify the expression of pri-mir-675, mir-675-5p and mi405 using TaqMan probes (ThermoFisher Scientific). Experiments were started by eliminating genomic DNA from the RNA preparations, and then cDNA was generated using the High-Capacity cDNA Reverse Transcription Kit (Applied Biosystems) following manufacturer's instructions. Within the same cDNA reaction, 1×RT random hexamer primers were used to generate the cDNA for RPL13A, used as a reference gene, and for pri-mir-675. To generate the cDNA for mir-675, the RT mir-675 reverse primer provided by ThermoFisher Scientific was used. For mi405, the mi405 qPCR protocol was done as it was previously described [Wallace et al., Mol. Ther. Methods Clin. Dev. 8: 121-30 (2018)]. To quantify mir-675 and mi405 levels, RNA was extracted using the total RNA protocol for the mirVana miRNA Isolation Kit (Ambion) from HEK293 cells. cDNA was generated using the High-Capacity cDNA Reverse Transcription Kit (Applied Biosystems) using a mix of random hexamer primers and specific reverse primer for pri-mir-675 and mir-675-5p. For mi405, 200 nM of the stem-loop forming primer (5′-[…]-3′) (SEQ ID NO: 144) was also used for the RT step. A custom TaqMan assay (Applied Biosystems) including 1.5 μM of Forward primer (5′-[…]-3′) (SEQ ID NO: 145), 0.7 μM of Reverse primer (5′-GTGCAGGGTCCGAGGT-3′) (SEQ ID NO: 146), and 0.2 μM of mi405 probe (5′-6FAM-ATACGACGTCCAGGAT-3′) (SEQ ID NO: 147) was then run using the CFX Connect Real Time system apparatus (Bio-Rad). RPL13A (Mm02526700_g1; Applied Biosystems) served as the reference gene. The TaqMan gene expression assay consisted of using the TaqMan Gene Expression Master mix and TaqMan probes purchased from ThermoFisher Scientific. 1× of probe was mixed with 1× of the TaqMan Gene Expression Master mix (ThermoFisher Scientific), and with 20 ng of cDNA. The mir-675- and mi405-specific primers and probes were designed to quantify only the mir-675-5p and mi405 mature sequence (see TaqMan Gene Expression Master mix protocol).

[3] = system: mir-675-5p; assay: ddPCR of all mature mir-675-5p sequences (TaqMan Advanced miRNA cDNA synthesis) in HEK293 cells
Description: Digital Droplet PCR (ddPCR). For mir-675 and mi405 constructs, RNA extraction was carried out as described for QPCR above. For cDNA synthesis, the TaqMan advanced cDNA synthesis kit (Thermo Fisher) was used and cDNA was prepared by following manufacturer's instructions. ddPCR was carried out using 1× ddPCR Supermix for probes (No dUTP) (Bio-Rad), 1× commercially available mir-675 advanced TaqMan probe, or a custom made mi405 advanced TaqMan probe (ThermoFisher) and 50 ng of cDNA. For DUX4 cDNA synthesis, the High-Capacity cDNA Reverse Transcription Kit (Applied Biosystems) was used according to manufacturer's instructions. Within the same cDNA reaction, 1×RT random hexamer primers and 25 pmoles of the Oligo(dT) primer were used to generate cDNA for DUX4 and DUX4-responsive biomarkers and for mouse Rpl13A, used as a reference gene. To quantify DUX4, the ddPCR reaction mixture (20 μL) contained 1× ddPCR Evagreen Supermix (Bio-Rad), 1 μM of forward and reverse DUX4 primers (Sharma et al., J Genet Syndr Gene Ther 2016 August; 7(4):303. doi: 10.4172/2157-7412.1000303. Epub 2016 Aug. 8), and 50 ng of cDNA. To quantify Rpl13A and DUX4-responsive biomarkers (Trim36 and Wfdc3), the 1× ddPCR Supermix for probes (No dUTP) and TaqMan specific probes were used for each of the genes. Droplets were generated using the Automatic Droplet generator QX200 AutoDG (Bio-Rad), the reactions were amplified in a C1000 Touch™ Thermal Cycler with 96-Deep Well Reaction Module (Bio-Rad). Cycling conditions were set up following the QX200 ddPCR Evagreen Supermix protocol. All assays are compatible with an annealing temperature of 58° C. Droplets were then read using the QX200 droplet reader (Bio-Rad). Finally, data were analyzed using the QuantaSoft analysis software (Bio-Rad). For quantification, each reaction of 20 μL was estimated to give at least 10,000 acceptable droplets.
In order to quantify the level of all these mature sequences, the TaqMan advanced miRNA cDNA synthesis method that uses universal reverse transcription (RT) chemistry to synthesize cDNA templates that can be quantified using the TaqMan Advanced miRNA probes was used. In this method, most of the processed mature miRNA sequences were quantified.

[4] = system: mir-675-5p; assay: Small-transcript northern blot of mir-675 processing in HEK293 cells; details: HEK293; anti-mir-675-5p biotinylated probe
From the text: Small-Transcript Northern Blots. […] (SEQ ID NO: 148)).

Molecule	Average inhibition efficiency (%) of DUX4 protein levels [1]	Average inhibition efficiency (%) of DUX4 protein levels ([1]; listed as U6-mir-675-2.1.1)	mir-675-5p levels compared to U6.mir-675 [2] [%]	ratio of mir-675-5p/pri-mir-675 compared to U6.mir-675 [2] [%]	fold change of all mature mir-675-5p sequences compared to U6.mir-675 [3] [%]	mature mir-675-5p bands on northern blot [4]
U6.mir-675-2.1.1: mir-675 construct with modified 5' and 3' flanking sequences (nucleic acid) DNA: TCTAGAGATCCGACGCCGCCATCTCTAGGCCCGCGCCGGCCCCCTCGCACAGACTTGTGGGAGAAGCTCGGCTACTCCCCTGCCCCGGTTAATTTGCATATAATATTTCCTAGTAACTATAGAGGCTTAATGTGCGATAAAAGACAGATAATCTGTTCTTTTTAATACTAGCTACATTTTACATGATAGGCTTGGATTTCTATAAGAGATACAAATACTAAATTATTATTTTAAAAAACAGCACAAAAGGAAACTCACCCTAACTGTAAAGTAATTGTGTGTTTTGAGACTATAAATATCCCTTGGAGAAAAGCCTTGTTTGCCCCAGGGTCTGGTGCGGAGAGGGCCCACAGTGGACTTGGTGACGCTGTATGCCCTCACCGCTCAGCCCCTGGGGATAACTCCTAATCACACTTTTTT	83±3%	83 ± 3 (N = 3) %	282±34	207±38	213±51	detectable mir-675 mature sequences
U6.mir-675F2: U6 mir-675 construct with H1.mir-675-like flanks and cPPT/CTS sequence (nucleic acid) DNA: TTTTAAAAGAAAAGGGGGGATTGGGGGGTACAGTGCAGGGGAAAGAATAGTAGACATAATAGCAACAGACATACAAACTAAAGAATTACAAAAACAAATTACAAAAATTCAAAATTTTTCTAGAGATCCGACGCCGCCATCTCTAGGCCCGCGCCGGCCCCCTCGCACAGACTTGTGGGAGAAGCTCGGCTACTCCCCTGCCCCGGTTAATTTGCATATAATATTTCCTAGTAACTATAGAGGCTTAATGTGCGATAAAAGACAGATAATCTGTTCTTTTTAATACTAGCTACATTTTACATGATAGGCTTGGATTTCTATAAGAGATACAAATACTAAATTATTATTTTAAAAAACAGCACAAAAGGAAACTCACCCTAACTGTAAAGTAATTGTGTGTTTTGAGACTATAAATATCCCTTGGAGAAAAGCCTTGTTTGCCCCAGGGTCTGGTGCGGAGAGGGCCCACAGTGGACTTGGTGACGCTGTATGCCCTCACCGCTCAGCCCCTGGGGAATTCTTCGATTCTGCTTTTTT	79 ± 6 (N = 3) %	–	882±108	918±169	181±34	detectable mir-675 mature sequences
